Assays:
[1] = target: Endogenous high affinity simian LIF receptors on COS-7 cells (simian); assay: Scatchard analysis of 125I-LIF binding to non-transfected COS-7 cells (curve E)
[2] = target: Endogenous high affinity simian LIF receptors on COS-7 cells (simian); assay: Scatchard analysis of 125I-LIF binding to COS-7 cells transfected with pHLIFR-65 and CAV, high affinity site (curve B, site 1)

Recombinant human leukemia inhibitory factor (LIF) (from UniProt P15018) (ligand)
Kd [1]: 0.03 nM | Kd [2]: 0.033 nM
